The numbers were not newly measured in publication PMC4138051, which cites them from elsewhere.

Where two headings read alike, the source gives them in different places.

The term Kd denotes the constant that tells how readily two partners part at equilibrium.

Data set [1] deals with MLL MBM2 24-40 (Homo sapiens) (UniProt Q03164).
Data set [2] has as its target MLL 1-160 (Homo sapiens) (UniProt Q03164).
Data set [3] has the same target. This is another data set of the same source.
Data set [4] has as its target MLL MBM1 6-13 (Homo sapiens) (UniProt Q03164).

Turning to menin (from UniProt O00255), the Kd is 1 µM in data set [1], 1.5 µM with MLL 1-160 (Homo sapiens) [2], 0.01 µM with MLL 1-160 (Homo sapiens) [3] and 0.056 µM in data set [4].
